# Laboratory results as given in article PMC9430589.
# Assays:
# Test in all cases: EMSA
# Conditions in all cases: EMSA: 20 mM Tris-HCl pH 8.0, 1 mM MgCl2, 20 mM KCl, 10 mM Na phosphate pH 8.0, 10% glycerol, 500 nM heparin, 1 nM RNA, 37 C 1 h (PNPase: TMK, 50 mM Tris-HCl pH …)
# [1] = molecular target: T1, RhlB (DEAD box RNA helicase) (Deinococcus radiodurans R1) (UniProt Q9RXH8)
# T1 sequence: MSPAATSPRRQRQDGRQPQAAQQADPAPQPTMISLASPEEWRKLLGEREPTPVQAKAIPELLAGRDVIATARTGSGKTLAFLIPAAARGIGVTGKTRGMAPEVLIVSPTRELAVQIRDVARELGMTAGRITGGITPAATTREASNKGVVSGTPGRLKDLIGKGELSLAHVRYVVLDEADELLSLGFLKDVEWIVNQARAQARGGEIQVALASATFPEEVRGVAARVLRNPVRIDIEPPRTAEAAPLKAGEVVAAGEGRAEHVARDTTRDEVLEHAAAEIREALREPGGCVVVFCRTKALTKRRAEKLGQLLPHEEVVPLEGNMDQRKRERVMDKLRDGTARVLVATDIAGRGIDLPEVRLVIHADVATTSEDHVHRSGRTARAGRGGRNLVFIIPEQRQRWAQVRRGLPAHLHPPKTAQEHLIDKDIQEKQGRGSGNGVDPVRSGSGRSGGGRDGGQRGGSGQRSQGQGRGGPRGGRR
# [2] = molecular target: T2, Rho transcription termination factor (Deinococcus radiodurans R1) (UniProt P52153)
# T2 sequence: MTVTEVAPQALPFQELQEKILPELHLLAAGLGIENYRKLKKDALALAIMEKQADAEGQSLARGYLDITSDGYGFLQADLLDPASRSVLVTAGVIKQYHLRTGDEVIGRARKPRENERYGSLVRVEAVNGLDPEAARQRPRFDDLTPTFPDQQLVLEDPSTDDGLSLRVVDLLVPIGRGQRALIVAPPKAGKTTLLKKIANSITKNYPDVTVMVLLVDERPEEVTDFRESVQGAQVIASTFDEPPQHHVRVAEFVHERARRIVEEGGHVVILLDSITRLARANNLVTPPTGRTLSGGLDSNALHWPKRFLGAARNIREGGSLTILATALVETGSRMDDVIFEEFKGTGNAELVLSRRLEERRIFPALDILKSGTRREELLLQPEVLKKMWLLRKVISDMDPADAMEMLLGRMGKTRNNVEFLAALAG
# [3] = molecular target: T3, RpsA (ribosomal protein S1) (Deinococcus radiodurans R1) (UniProt Q9RSY6)
# T3 sequence: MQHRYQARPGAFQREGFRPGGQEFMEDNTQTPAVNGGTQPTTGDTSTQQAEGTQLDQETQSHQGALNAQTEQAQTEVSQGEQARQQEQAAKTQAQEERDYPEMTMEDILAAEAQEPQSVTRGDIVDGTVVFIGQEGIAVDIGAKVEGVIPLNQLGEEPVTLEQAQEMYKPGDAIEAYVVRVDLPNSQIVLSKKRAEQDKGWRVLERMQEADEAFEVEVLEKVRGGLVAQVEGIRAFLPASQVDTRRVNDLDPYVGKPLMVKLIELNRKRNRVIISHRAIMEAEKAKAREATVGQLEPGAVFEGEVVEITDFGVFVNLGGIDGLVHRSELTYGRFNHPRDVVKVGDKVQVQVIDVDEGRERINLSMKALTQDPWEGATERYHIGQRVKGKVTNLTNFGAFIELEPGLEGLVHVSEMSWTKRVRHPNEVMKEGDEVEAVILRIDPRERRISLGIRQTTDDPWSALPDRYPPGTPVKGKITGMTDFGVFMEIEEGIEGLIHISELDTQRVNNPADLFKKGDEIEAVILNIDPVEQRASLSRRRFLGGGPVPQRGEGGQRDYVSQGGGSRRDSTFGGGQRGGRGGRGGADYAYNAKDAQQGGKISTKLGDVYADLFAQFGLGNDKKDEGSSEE
sequence,measurement,setting,value
"NNNGNNNNNGNNNNNGNNNNNGNN [8-oxoG x2 24-mer (random N, degenerate)]",Kd,"[1]; 8-oxoG at positions 16, 22",355 nM
"NNNGNNNNNGNNNNNGNNNNNGNN [8-oxoG x3 24-mer (random N, degenerate)]",Kd,"[1]; 8-oxoG at positions 10, 16, 22",351 nM
"NNNGNNNNNGNNNNNGNNNNNGNN [Ctrl 24-mer (random N, degenerate)]",Kd,[2],3940 nM
same,Kd,[3],5440 nM
same,Kd,[1],3010 nM
"NNNGNNNNNGNNNNNGNNNNNGNN [8-oxoG x4 24-mer (random N, degenerate)]",Kd,"[1]; 8-oxoG at positions 4, 10, 16, 22",341 nM
"NNNGNNNNNGNNNNNGNNNNNGNN [8-oxoG x1 24-mer (random N, degenerate)]",Kd,[2]; 8-oxoG at position 16,1880 nM
same,Kd,[3]; 8-oxoG at position 16,1710 nM
same,Kd,[1]; 8-oxoG at position 16,383 nM
